The values that follow come from the Human Domainome abundance scans (Beltran et al. 2025).

± gives the uncertainty stated by the source.

B1: POU domain, class 3, transcription factor 4, residues 280 to 335; numbered along this chain, P49335 (parent)
chain: KKRTSIEVSVKGVLETHFLKCPKPAAQEISSLADSLQLEKEVVRVWFCNRRQKEKR

In the series the parent is B1. Kind of series: abundance fitness (aPCA) (normalised: wild type 0, dead -1); higher = more abundant; growth selection in yeast, the domain comes from the species named. To be noted: Homo sapiens.
Take F18Q: the abundance fitness was -1.16 ± 0.39.
Then F18W, with -0.485 ± 0.13; and F18D, with -0.814 ± 0.27.
Then F18M, with -0.893 ± 0.22; and F18N, with -0.859 ± 0.27; and F18T, with -0.732 ± 0.18.
In the case of K1M, the abundance fitness was -0.03 ± 0.27.
Then K1R, with -0.312 ± 0.2; and K1D, with -0.185 ± 0.49; and S35C, with -0.383 ± 0.17.
Then S35I, with -0.373 ± 0.15.
Then T4S, with 0.213 ± 0.13.
Regarding T4R, the abundance fitness was -0.419 ± 0.11.
For T4E, the abundance fitness is 0.034 ± 0.24.
For the variant T4D, the abundance fitness came out at 0.34 ± 0.19.
Then T4F, with -0.26 ± 0.25.
Then K20A, with -0.339 ± 0.15.
Then K20H, with -0.693 ± 0.26; and K20G, with -0.69 ± 0.12; and L38C, with -0.656 ± 0.22.
Take D34S: the abundance fitness is -0.317 ± 0.13.
Then D34K, with 0.109 ± 0.22; and D34P, with -0.843 ± 0.29; and D34C, with -0.531 ± 0.37.
V43K: the abundance fitness is -1.01 ± 0.36.
Then V43W, with -1.19 ± 0.38; and V43M, with -1.22 ± 0.47; and C21K, with -0.725 ± 0.33.
Then C21A, with -0.756 ± 0.18.
Then C21P, with -0.483 ± 0.21.
In the case of Q37R, the abundance fitness is -0.21 ± 0.17.
Then Q37V, with -0.923 ± 0.29; and H17W, with -0.159 ± 0.15; and H17A, with 0.085 ± 0.13.
Then H17E, with -0.172 ± 0.16; and H17C, with -0.497 ± 0.2.
Then H17M, with -0.019 ± 0.15; and H17R, with -0.845 ± 0.14; and I6W, with -0.244 ± 0.23.
As for I6C, the abundance fitness was -0.626 ± 0.13.
Then I6A, with -0.437 ± 0.12; and Q52V, with -0.378 ± 0.14.
Then Q52F, with -0.931 ± 0.38; and E54W, with -0.902 ± 0.25.
With E54V, the abundance fitness is -0.634 ± 0.17.
For the variant E54F, the abundance fitness is -0.836 ± 0.44.
Then K23Y, with 0.396 ± 0.19.
Regarding K23P, the abundance fitness is -0.697 ± 0.27.
Then K23V, with -0.225 ± 0.11.
Then K23S, with 0.17 ± 0.11; and L32F, with -0.877 ± 0.38.
Then L32P, with -0.176 ± 0.34; and C48V, with 0.058 ± 0.15; and C48M, with 0.022 ± 0.19.
In the case of T16C, the abundance fitness is -0.283 ± 0.26.
Then T16Y, with -0.306 ± 0.42.
Then T16K, with 0.572 ± 0.15; and V13C, with -0.454 ± 0.3.
Then V13L, with -0.02 ± 0.26; and K11S, with -0.498 ± 0.3.
On to K11R, for which the abundance fitness is -0.076 ± 0.2.
In the case of K11G, the abundance fitness is -0.645 ± 0.35.
Then A26I, with -0.168 ± 0.21.
For the variant A26C, the abundance fitness is -0.211 ± 0.18.
Then A26P, with 0.149 ± 0.19.
Then A26Y, with -0.254 ± 0.23; and A26D, with 0.396 ± 0.2.
Then A26F, with -0.451 ± 0.26; and E39M, with -0.478 ± 0.29.
In the case of E39T, the abundance fitness is -0.421 ± 0.26.
Then S9P, with -0.335 ± 0.48.
Then S9K, with 0.237 ± 0.33.
Then Q27H, with -0.074 ± 0.26; and E7L, with -0.163 ± 0.087.
With E7F, the abundance fitness is -0.513 ± 0.12.
For V8S, the abundance fitness is 0.546 ± 0.14.
Then V8E, with 0.623 ± 0.14.
As to G12D, the abundance fitness was 0.288 ± 0.44.
Then G12K, with -0.009 ± 0.35.
Then G12A, with -0.177 ± 0.41.
Then A25Q, with 0.045 ± 0.16; and A25W, with -0.764 ± 0.17; and A25K, with -0.015 ± 0.33.
Turning to F47D, the abundance fitness was -0.565 ± 0.4.
Then F47M, with -0.897 ± 0.3; and F47L, with -0.868 ± 0.17; and F47Q, with -0.899 ± 0.31.
Then L19A, with -0.187 ± 0.14.
As for L19Y, the abundance fitness was -0.518 ± 0.29.
Turning to L19N, the abundance fitness was -0.343 ± 0.24.
Take S5V: the abundance fitness was determined as 0.275 ± 0.12.
Then S5A, with 0.11 ± 0.13.
Then S5K, with 0.226 ± 0.27.
Then S5W, with -0.162 ± 0.14.
With S5G, the abundance fitness was 0.27 ± 0.12.
Then K55N, with -0.147 ± 0.22; and K55A, with -0.1 ± 0.17.
Then K55W, with -0.497 ± 0.24; and K55D, with -0.223 ± 0.28.
Then E41N, with -0.189 ± 0.29; and E41W, with -0.852 ± 0.2; and E41Y, with -0.819 ± 0.4.
As for R3S, the abundance fitness came to 0.261 ± 0.12.
Then R3H, with -0.277 ± 0.31.
Then L14F, with -0.887 ± 0.25.
Then L14Q, with -0.953 ± 0.2.
L14H: the abundance fitness was -0.983 ± 0.27.
Turning to L14T, the abundance fitness is -0.537 ± 0.13.
Then E15I, with -0.368 ± 0.21; and E15D, with -0.998 ± 0.41.
Then E15C, with -0.947 ± 0.3.
Then E15K, with -0.728 ± 0.21; and E15L, with -0.645 ± 0.13.
With K53W, the abundance fitness is -0.888 ± 0.33.
Then W46H, with -0.647 ± 0.35.
Then W46K, with -0.673 ± 0.25; and E28W, with -0.484 ± 0.31.
Then E28F, with -0.732 ± 0.17.
For the variant E28V, the abundance fitness is -0.398 ± 0.11.
Then E28S, with -0.692 ± 0.14; and E28H, with -0.63 ± 0.24; and E28A, with -0.657 ± 0.14.
Consider E28N, for which the abundance fitness is -0.123 ± 0.28.
Then V10C, with -0.486 ± 0.33.
Then V10G, with -0.751 ± 0.21; and V10R, with -0.731 ± 0.24; and P22H, with -0.513 ± 0.26.
Take P22E: the abundance fitness was -0.702 ± 0.21.
Then P22Y, with -0.949 ± 0.33.
Then P22S, with -0.427 ± 0.13; and P22D, with -0.363 ± 0.23; and P22I, with -0.606 ± 0.28.
Then R50Y, with -0.559 ± 0.34.
For R50C, the abundance fitness was -0.769 ± 0.36.
Take R50A: the abundance fitness was -0.582 ± 0.14.
Then R50T, with -0.693 ± 0.25; and R50L, with -0.93 ± 0.2; and R50Q, with -0.88 ± 0.41.
Then R56Y, with -0.144 ± 0.43; and R56S, with 0.015 ± 0.27; and P24W, with -0.514 ± 0.27.
Then P24H, with -0.688 ± 0.47; and K2D, with -0.342 ± 0.26; and K2N, with -0.058 ± 0.35.
On to K2V, for which the abundance fitness is -0.124 ± 0.15.
Then K2P, with -0.559 ± 0.27.
On to A33Y, for which the abundance fitness is -0.917 ± 0.39.
Then R51N, with -0.628 ± 0.37; and R51A, with -0.309 ± 0.14.
As for R51G, the abundance fitness was -0.804 ± 0.14.
Then R51P, with -0.834 ± 0.25; and V45Y, with -0.372 ± 0.25; and S31L, with -0.114 ± 0.12.
In the case of K40E, the abundance fitness was 0.192 ± 0.23.
Then K40P, with 0.348 ± 0.18; and K40Q, with -0.063 ± 0.19; and K40Y, with 0.009 ± 0.2.
K40M: the abundance fitness was -0.269 ± 0.15.
Regarding V42K, the abundance fitness is -0.596 ± 0.35.
Then V42N, with -0.799 ± 0.41; and V42T, with 0.207 ± 0.18.
Then V42P, with -0.874 ± 0.28; and V42W, with -0.291 ± 0.15.
Then V42Y, with -0.396 ± 0.43; and S30Q, with -0.163 ± 0.2.
S30E: the abundance fitness came to 0.215 ± 0.15.
Then S30N, with -0.196 ± 0.2.
